{"source": "patent US20200283487A1", "about": "(UNIVERSITY OF SOUTHAMPTON, published 2020)", "binders": {"B1": {"name": "rfhSP-A (recombinant fragment of human surfactant protein A; truncated SP-A polypeptide) (other)", "chain": "not shown", "notes": "C-type lectin (collectin) fragment; also called rhfSP-A; trimeric rfhSP-A"}}, "biological_target": "T1, BSA (UniProt P02769 25-607)", "T1 construct": "Negative control analyte on the Biacore chip; also called BSA negative control", "T1 sequence (P02769 25-607 limits assumed)": "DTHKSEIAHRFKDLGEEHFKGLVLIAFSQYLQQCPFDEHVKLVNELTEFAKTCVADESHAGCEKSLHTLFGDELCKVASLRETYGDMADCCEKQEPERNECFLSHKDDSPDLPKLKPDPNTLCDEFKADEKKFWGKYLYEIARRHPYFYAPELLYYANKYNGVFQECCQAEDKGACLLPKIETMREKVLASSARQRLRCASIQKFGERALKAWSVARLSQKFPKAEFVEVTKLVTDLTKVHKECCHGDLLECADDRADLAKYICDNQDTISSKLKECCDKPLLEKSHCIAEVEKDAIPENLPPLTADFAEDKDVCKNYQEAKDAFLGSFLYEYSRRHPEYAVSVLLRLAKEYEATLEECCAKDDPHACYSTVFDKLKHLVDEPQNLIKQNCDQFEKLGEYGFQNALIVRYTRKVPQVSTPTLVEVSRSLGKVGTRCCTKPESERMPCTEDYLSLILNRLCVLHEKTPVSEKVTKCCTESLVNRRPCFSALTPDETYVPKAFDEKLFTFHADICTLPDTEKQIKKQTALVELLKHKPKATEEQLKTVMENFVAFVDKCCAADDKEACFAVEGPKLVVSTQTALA", "experiment": "SPR (Biacore), rfhSP-A immobilised to ~700 RU, BSA as soluble analyte"}
{"binder": "B1", "values": [{"measurement": "binding result", "result": "no binding"}]}
